Target: ap2a_human TFAP2A (UniProt P05549)
Sequence (P05549 whole entry): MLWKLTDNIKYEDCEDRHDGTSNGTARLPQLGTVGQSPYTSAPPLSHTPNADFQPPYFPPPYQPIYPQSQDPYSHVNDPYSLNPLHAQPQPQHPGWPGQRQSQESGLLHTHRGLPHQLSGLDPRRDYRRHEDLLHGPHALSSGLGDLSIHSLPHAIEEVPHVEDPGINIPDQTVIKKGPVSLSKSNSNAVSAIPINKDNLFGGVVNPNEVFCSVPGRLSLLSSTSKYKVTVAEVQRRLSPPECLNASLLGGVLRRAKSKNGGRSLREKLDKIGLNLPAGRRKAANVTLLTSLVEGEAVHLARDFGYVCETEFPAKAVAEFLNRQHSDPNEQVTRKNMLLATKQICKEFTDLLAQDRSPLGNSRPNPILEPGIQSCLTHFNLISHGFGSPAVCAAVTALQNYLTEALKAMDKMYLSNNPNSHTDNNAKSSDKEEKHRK

Q: Which “effect of a mutation on the interaction” value does the source give for “Histone acetyltransferase p300 (Homo sapiens), Q09472 D1399Y” here?
A: disrupting interaction

From IntAct's records for PubMed 12586840
